Test: label from the status in PepcDB records

Sequence	protein production
MGGATSGAVSSLNSRLALAHTPLLNTPQKPVDCRPHRTRTSDSAPMELHYRITPAHTEAWIAEPLKQELLKDDQQHVRAMSTFARWQSRFIGPVMFTLCLIGGCLSIYFPERNFTAEKVIAMVAFALIFIPLWWRFSGRWIKHLQARIAATPIKPQAPLRGLSQRLIETRLRAVEGTYCLNFDDQGFTLLNARGGQSSLAWKQIASVQEIPDFYLVADADMERQGVACFIAKHTDLMPTEAYQQGLQAFLSQCPAALPAH	failed
MRMIIAFLLGCLGMFLTTGCAFVSVPLMSAPQPLAEQVLEGEGTKKILIVDISGAIGDQAKGGGLLSRGTPSTVSLVREVLLKAERDPKVAGLILRINSPGGTVTASDIIRHDLLAFKERRNLPVSACIMGIGASGGYYVATAADGITAHPTALTGSIGVLLMTFNVEGLLGKVGVEEKTIKSGGKKDLLSPFRRATPEEERLVQGVIDQFHGRFVDVVQARPGNRLSRHDLLTLADGRIFSAADALAAGLIDRIGYLDDVIASLRDRIGDPDARVVTYFRPGSYQGSIYAESAAEPSMADLLGGFDMTGGGQFMYLWRPW	failed
MELMIGRVVKSHGIRGEVAIEVTTEEPEIRFAQGEVLNGRQGGKEHSLTIASVRPHQNRLLVKFKEIADRTAADSLRGTRFFAAPLDDDVDDGFYDHELEGLAVIHGEEKIGEVSGVIHGPAQSLLEVTLESGKEVLIPFVHDIVPEVDLDAGTCVITPPEGLLELLEHHHHHH	not failed
MKRFILLSFVVLALGFYELSGGPDFDPEVARASIIDARQERELARKAALPGPVYVAAAPSAEPEVEDSVTRANLNLVSFASVVAEPEISTVTAPVAVARADTPETAPEITVKRLAAAQDEPLSLAALSPAQEPSRNVFAGSSIVASSSDINGEKNLRSVKGTRVNMRSGPGTQYDVVAQLTQSEEVEVLTDTGNGWVELRPLEGGPTGWVAEFLLTGG	failed
MTEIYTSVLSYRLLEGKAYSDADTRSLDRMMRSIDEFFSANPGYINFHIYRSYRTDSDVIFWYSSRNPDLMILAKERVQASMRPIAVSSFSSISIYDESPYNAMNKKLEDSLRLPPLRYFVAYPMSKTPDWYLLDFDTRKEIMHEHIKMALNHPDEKGIRSYTTYSFGIGDQEFVVLYEIPDIAAWSRVTEKLREARARKWIIKETPILLGRLVDAGDIAGFLL	not failed
TPEHRAVAREVAAETFVLLKNENHLLPLEEKGKIALIGPMADARNNMCGMWSMTCTPSRHGTLLEGIRSAVGDKAEILYAKGSNVYYDAEMEKGAVGIRPLERGNDQQLLAEALRTAARADVIVAAVGECAEMSGESPSRTNLEIPDAQQDLLKALVKTGKPVVLLLFTGRPLILNWESEHIPSILNVWFGGSETGDAVADVLFGKAVPCGKLTTTFPRSVGQLPLFYNHLNTGRPDPDNRVFNRYASNYLDESNEPLYPFGYGLSYTDF	not failed
MTTHDRVRLQLQALEALLREHQHWRNDEPQPHQFNSTQPFFMDTMEPLEWLQWGLIPRMHDLLNNNQPLPGAFAVAPYYEMALATDHPQRALILAELEKLDALFADDASLEHHHHHH	failed
MCVRHDAGHGCLRAREGRRRPSMAPPCRKKINKPVLVRVDEFCSAAVQAGNPIVPSTLETTHWATRRRPKEAGMASKMFKTVGRVAAGVAALSIAAAATTASADSRHHRHKRDKGGDVAAAAITAGVIGLVIGAAIADDGHRDDRYYDRRYAPPPPPPPTRYGHGYGYGYDYDYAPRPYYGDRECWTTREYNRRSGSYYERTVCR	failed
MIGNPVIQVPSSLMPSSSMIACPRVSPNGVPYLPPKPRTRHLVVRAASNSDAAHGQPSSDGGKNPLTVVLDVPRNIWRQTLKPLSDFGFGKRSIWEGGVGLFIVSGATLLALSWAWLRGFQMRSKFRKYQTVFELSHASGICTGTPVRIRGVTVGTIIRVNPSLKNIEAVAEIEDDKIIIPRNSLVEVNQSGLLMETMIDIMPRNPIPEPSVGPLHPECGKEGLIVCDRQTIKGVQGVSLDELVGIFTRIGREVEAIGVANTYSLAERAASVIEEARPLLKKIQAMAEDAQPLLSEFRDSGLLKEVECLTRSLTQASDDLRKVNSSIMTPENTELIQKSIYTLVYTLKNVESISSDILGFTGDEATRKNLKLLIKSLSRLL	failed
DPSVFSLPDSKLPGDKEFVPWQQDLDDSVKPTQQARPTVIRWSEGGKEVFISGSFNNWSTKIPLIKSHNDFVAILDLPEGEHQYKFFVDGQWVHDPSEPVVTSQLGTINNLIHVKKSDFEVFDALKLDSMESSETSCRV	failed
MSWTVVYSAQAKQDLRNIFEYIAHSLCSPDAAKSQTRRIMAEIHSLDEMPLRYRIYDDEPWRSQGLRFFPVDYYLVFYLPVASANTVKIVRIMYGGRDVKKHLEEELLEHHHHHH	failed
MATKSSDSSHKQSPPSFRKSVEIKATHDQFFVWREFLWGGIAGAFGEGMMHPVDTLKTRLQSQIIMNATQRQKSILQMLRTVWVGDGLKGFYRGIAPGVTGSLATGATYFGFIESTKKWIEESHPSLAGHWAHFIAGAVGDTLGSFIYVPCEVIKQRMQIQGTSSSWSSYISRNSVPVQPRGDMYGYYTGMFQAGCSIWKEQGPKGLYAGYWSTLARDVPFAGLMVVFYEGLKDLTDQGKKKFPQYGVNSSIEGLVLGGLAGGLSAYLTTPLDVVKTRLQVQGSTIKYASYKGWLDAVGQIWRKEGPQGFFRGSVPRVMWYLPASALTFMAVEFLRDNFREKSNNNNNVVSNLSIERKTSSTSVHEG	failed
MSTQENVQIVKDFFAAMGRGDKKGLLAVSAEDIEWIIPGEWPLAGTHRGHAALAALLQKASEMVEISYPEPPEFVAQGERVLVVGFATGRVKSTNRTFEDDWVFAITVRKSKVTSIREYIDTLALARATNFNAT	not failed
MTSGTSVINDKVLQYETFISEVLRRDLQKVLEQRDAVYEKIAQYLQLKNTIQSIQESGSKELKTDVDLGCNFYVQAHVPDASRIYVAVGYGFFVEFTHAEALKFIEKKTNQLTEYTEVLTKDAAKIKANIRMVLEGLRELQGLKDLPEDRRREVF	not failed
MKPNFKNIDIYAGFQPQNGMEWQKENGITADWKTPEHINVKPVYTKEDLEGMEHLNYVAGIPPYLRGPYSMMYTFRPWTIRQYAGFSTAEESNAFYRRNLASGQKGLSVAFDLPTHRGYDPDHERVVGDVGKAGVSICSLENMKVLFDGIPLNKMSVSMTMNGAVLPIMAFYINAGLEQGAKLEEMAGTIQNDILKEFMVRNTYIYPPAFSMKIISDIFEYTSQKMPKFNSISISGYHMQEAGATADIELAYTLADGLEYLRAGVAAGIDIDAFAPRLSFFWAIGMNHFMEIAKMRAARMLWAKIVKQFNPKNPKSLALRTHSQTSGWSLTEQDPFNNVGRTCIEAMAAALGHTQSLHTNALDEAIALPTDFSARIARNTQIYIQEETYVCKNVDPWGGSYYVESLTNELAHKAWEHIQEIESLGGMAKAIETGVPKMRIEEAAARTQARIDSGAQTIVGTNKYRLEKEDPIDILEVDNTAVRLEQIENLKRLKEGRNQAEVDKALAAITECVKTGKGNLLELAVEAAHVRATLGEISDACETIVGRYKAVIRTISGVYSSESKKDTDFARACELTEEFAKKEGRRPRIMIAKMGQDGHDRGAKVVATGYADCGFDVDMGPLFQTPAEAARDAVENDVHVVGVSSLAAGHKTLIPQIIEELKKLGREDILVIAGGVIPAQDYDFLYKAGVVAIFGPGTSVAKAAVQIMDILLDEEE	failed
MKHAQKYRYFSLLMGLVLLLSACQIGATTKDDNQAATKEATVELNRTTTPTLFFHGYAGTKNSFGSLLHRLEKQGATTQELVLLVKPDGTVVKERGALSGKATNPSVQVLFEDNKNNEWNQTEWIKNTLLYLQKNYQVNKANIVGHSMGGVSGLRYLGTYGQDTSLPKIEKFVSIGAPFNDFIDTSQQQTIETELENGPTEKSSRYLDYQEMINVVPEKLPILLIGGQLSPTDLSDGTVPLSSALAVNALLRQRGTQVTSQIIKGENAQHSQLHENPEVDQLLIEFLWPSKK	failed
MDVLSLVGIILAFVAIVGGNFLEGGHAGALLNGPAALIVIGGTLAAALLQTPVNVLKRGLGMLGWVFFPPREDLSGGIDRIVSWSMTARKEGLLGLESIADAEPDPYARKGLQLLVDGAEPEVIRSILEVDLFTQESRDLQAAKVFESMGGYAPTIGIIGAVMGLIHVMGNLANPAQLGSGIAVAFVATIYGVGFANLLLLPIGNKLKTLVLRQSRYREMLLEGLLSIAEGENPRSIELKLQGFMD	failed
